Results: US9708383 (Novo Nordisk, dated 2017)
*1 amine or outer side, *2 acyl side, *3 side chain or, on linkers, in order; H or OH if unused. Where no end group is shown, it is not given here. Side-chain parts run from the residue outwards. [ ]: non-standard residue; d: D form. The star is where a group is joined. Decanoyl(10-(4-HOOC-PhO)) = O=C(O)c1ccc(OCCCCCCCCCC(=O)*)cc1; C18 diacid = O=C(O)CCCCCCCCCCCCCCCCC(=O)*; C16 diacid = O=C(O)CCCCCCCCCCCCCCC(=O)*; γGlu = O=C(O)[C@H](CCC(=O)[*:2])N[*:1]; Desaminohistidyl = O=C(CCc1c[nH]cn1)*; C12 diacid = O=C(O)CCCCCCCCCCC(=O)*; 13‑carboxytridecanoyl = C14 diacid; AEEA = NCCOCCOCC(=O)O; Aib = CC(C)(N)C(=O)O

Assays:
human GLP-1 receptor [1] = biological target: T1, human GLP-1 receptor (human, UniProt P43220 24-463); experiment: SPA, 2.0% vs 0.005% HSA
T1 construct: whole, on cells; Used as purified membranes of the transfected hamster cells, not whole cells; also called hGLP-1

human GLP-1 receptor [2] = biological target: T1, human GLP-1 receptor; experiment: SPA, displacement of 125I-GLP-1(7-36)NH2, 0.005% HSA

Binder | ratio IC50 high HSA/IC50 low HSA (human GLP-1 receptor [1]) | IC50 (human GLP-1 receptor [2]) [nM]
H[Aib]EGTFTSDVSK([AEEA-γGlu-13‑carboxytridecanoyl])YLEEQAVREFIAK([AEEA-γGlu-13‑carboxytridecanoyl])LVG [GLP-1 derivative of Example 20: [Aib8,Lys18,Glu22,Val25,Arg26,Lys31,Gly34]-GLP-1-(7-34)-peptide] | > 1 | < 1000
[Desaminohistidyl]AEGTFTSDVSK([AEEA-AEEA-γGlu-Decanoyl(10-(4-HOOC-PhO))])YLEEQAARK([AEEA-AEEA-γGlu-Decanoyl(10-(4-HOOC-PhO))])FIAHLVG [GLP-1 derivative of Example 33: [Imp7,Lys18,Glu22,Arg26,Lys27,His31,Gly34]-GLP-1-(7-34)-peptide] | > 1 | < 1000
H[Aib]EGTFTSDVSK([AEEA-AEEA-γGlu-C16 diacid])YLEEQAAK([AEEA-AEEA-γGlu-C16 diacid])EFIAWLVRG [GLP-1 derivative of Example 138: [Aib8,Lys18,Glu22,Arg34]-GLP-1-(7-35)-peptide] | > 1 | < 1000
H[Aib]EGTFTSDVSK([AEEA-AEEA-γGlu-13‑carboxytridecanoyl])YLEEQAAREFIK([AEEA-AEEA-γGlu-13‑carboxytridecanoyl])WLVRG [GLP-1 derivative of Example 83: [Aib8,Lys18,Glu22,Arg26,Lys30,Arg34]-GLP-1-(7-35)-peptide] | > 1 | < 1000
H[Aib]EGTFTSDVSK([AEEA-AEEA-γGlu-13‑carboxytridecanoyl])YLEGQAAHEFIK([AEEA-AEEA-γGlu-13‑carboxytridecanoyl])WLVRG [GLP-1 derivative of Example 81: [Aib8,Lys18,His26,Lys30,Arg34]-GLP-1-(7-35)-peptide] | > 1 | < 1000
H[Aib]EGTFTSDVSK([AEEA-AEEA-γGlu-Decanoyl(10-(4-HOOC-PhO))])YLEEQAVREFIAK([AEEA-AEEA-γGlu-Decanoyl(10-(4-HOOC-PhO))])LVG [GLP-1 derivative of Example 19: [Aib8,Lys18,Glu22,Val25,Arg26,Lys31,Gly34]-GLP-1-(7-34)-peptide] | > 1 | < 1000
H[Aib]EGTFTSDVSK([AEEA-AEEA-γGlu-C18 diacid])YLEEQAAK([AEEA-AEEA-γGlu-C18 diacid])EFIAWLVQGRG [GLP-1 derivative of Example 23: [Aib8,Lys18,Glu22,Gln34]-GLP-1-(7-37)-peptide] | > 1 | < 1000
H[Aib]EGTFTSDVSK([γGlu-AEEA-AEEA-13‑carboxytridecanoyl])YLEEQAAK([γGlu-AEEA-AEEA-13‑carboxytridecanoyl])EFIAWLVQGRG [GLP-1 derivative of Example 65: [Aib8,Lys18,Glu22,Gln34]-GLP-1-(7-37)-peptide] | > 1 | < 1000
[Desaminohistidyl]AEGTFTSDVSK([AEEA-AEEA-γGlu-C12 diacid])YLEEQAVREFIAK([AEEA-AEEA-γGlu-C12 diacid])LVG [GLP-1 derivative of Example 13: [Imp7,Lys18,Glu22,Val25,Arg26,Lys31,Gly34]-GLP-1-(7-34)-peptide] | > 1 | < 1000
[Desaminohistidyl][Aib]EGTFTSDVSK([AEEA-AEEA-γGlu-C12 diacid])YLEEQAVREFIAK([AEEA-AEEA-γGlu-C12 diacid])LVG [GLP-1 derivative of Example 22: [Imp7,Aib8,Lys18,Glu22,Val25,Arg26,Lys31,Gly34]-GLP-1-(7-34)-peptide] | > 1 | < 1000
[Desaminohistidyl]AEGTFTSDVSK([γGlu-AEEA-AEEA-13‑carboxytridecanoyl])YLEEQAARK([γGlu-AEEA-AEEA-13‑carboxytridecanoyl])FIAHLVG [GLP-1 derivative of Example 32: [Imp7,Lys18,Glu22,Arg26,Lys27,His31,Gly34]-GLP-1-(7-34)-peptide] | > 1 | < 1000
H[Aib]EGTFTSDVSK([AEEA-AEEA-γGlu-13‑carboxytridecanoyl])YLEEQAVREFIAK([AEEA-AEEA-γGlu-13‑carboxytridecanoyl])LVG [GLP-1 derivative of Example 5: [Aib8,Lys18,Glu22,Val25,Arg26,Lys31,Gly34]-GLP-1-(7-34)-peptide] | > 1 | < 1000
H[Aib]EGTFTSDVSK([AEEA-AEEA-γGlu-13‑carboxytridecanoyl])YLEEQAAREFIAK([AEEA-AEEA-γGlu-13‑carboxytridecanoyl])LVG [GLP-1 derivative of Example 16: [Aib8,Lys18,Glu22,Arg26,Lys31,Gly34]-GLP-1-(7-34)-peptide] | > 1 | < 1000
H[Aib]EGTFTSDVSK([AEEA-AEEA-γGlu-13‑carboxytridecanoyl])YLEEQAVRHFIAK([AEEA-AEEA-γGlu-13‑carboxytridecanoyl])LVG | > 1 | < 1000
H[Aib]EGTFTSDVSK([AEEA-AEEA-γGlu-13‑carboxytridecanoyl])YLEERAVREFIAK([AEEA-AEEA-γGlu-13‑carboxytridecanoyl])LVG | > 1 | < 1000
H[Aib]EGTFTSDVSK([AEEA-AEEA-γGlu-13‑carboxytridecanoyl])YLEEQAVRK([AEEA-AEEA-γGlu-13‑carboxytridecanoyl])FIAHLVG | > 1 | < 1000
H[Aib]EGTFTSDVSK([AEEA-AEEA-γGlu-C12 diacid])YLEEQAVRK([AEEA-AEEA-γGlu-C12 diacid])FIAHLVG | > 1 | < 1000
H[Aib]EGTFTSDVSK([AEEA-AEEA-γGlu-13‑carboxytridecanoyl])YLEEQAVHEFIAK([AEEA-AEEA-γGlu-13‑carboxytridecanoyl])LVG [GLP-1 derivative of Example 7: [Aib8,Lys18,Glu22,Val25,His26,Lys31,Gly34]-GLP-1-(7-34)-peptide] | > 1 | < 1000
H[Aib]EGTFTSDVSK([AEEA-AEEA-γGlu-13‑carboxytridecanoyl])YLEEQAVREFIEK([AEEA-AEEA-γGlu-13‑carboxytridecanoyl])LVG [GLP-1 derivative of Example 6: [Aib8,Lys18,Glu22,Val25,Arg26,Glu30,Lys31,Gly34]-GLP-1-(7-34)-peptide] | > 1 | < 1000
H[Aib]EGTFTSDVSK([AEEA-AEEA-γGlu-C12 diacid])YLEEQAVHEFIAK([AEEA-AEEA-γGlu-C12 diacid])LVG [GLP-1 derivative of Example 27: [Aib8,Lys18,Glu22,Val25,His26,Lys31,Gly34]-GLP-1-(7-34)-peptide] | > 1 | < 1000
[Desaminohistidyl][Aib]EGTFTSDVSK([AEEA-AEEA-γGlu-13‑carboxytridecanoyl])YLEEQAVREFIAK([AEEA-AEEA-γGlu-13‑carboxytridecanoyl])LVG [GLP-1 derivative of Example 21: [Imp7,Aib8,Lys18,Glu22,Val25,Arg26,Lys31,Gly34]-GLP-1-(7-34)-peptide] | > 1 | < 1000
H[Aib]EGTFTSDVSK([AEEA-AEEA-γGlu-C12 diacid])YLEEQAVREFIAK([AEEA-AEEA-γGlu-C12 diacid])LVG [GLP-1 derivative of Example 8: [Aib8,Lys18,Glu22,Val25,Arg26,Lys31,Gly34]-GLP-1-(7-34)-peptide] | > 1 | < 1000
[Desaminohistidyl]AEGTFTSDVSK([AEEA-AEEA-13‑carboxytridecanoyl])YLEEQAARK([AEEA-AEEA-13‑carboxytridecanoyl])FIAHLVG [GLP-1 derivative of Example 31: [Imp7,Lys18,Glu22,Arg26,Lys27,His31,Gly34]-GLP-1-(7-34)-peptide] | > 1 | < 1000
H[Aib]EGTFTSDVSK([AEEA-AEEA-γGlu-C16 diacid])YLEEQAAK([AEEA-AEEA-γGlu-C16 diacid])EFIAWLVQGRG [GLP-1 derivative of Example 143: [Aib8,Lys18,Glu22,Gln34]-GLP-1-(7-37)-peptide] | > 1 | < 1000
H[Aib]EGTFTSDVSK([AEEA-AEEA-γGlu-13‑carboxytridecanoyl])YLEEQAVREFIAK([AEEA-AEEA-γGlu-13‑carboxytridecanoyl])LV-NH2 (Second site printed without its number (N^ε-)) [GLP-1 derivative of Example 37: [Aib8,Lys18,Glu22,Val25,Arg26,Lys31]-GLP-1-(7-33)-peptide amide] | > 1 | < 1000
H[Aib]EGTFTSDVSK([AEEA-AEEA-γGlu-13‑carboxytridecanoyl])YLEEQAVRLFIAWLVK([AEEA-AEEA-γGlu-13‑carboxytridecanoyl]) [GLP-1 derivative of Example 63: [Aib8,Lys18,Glu22,Val25,Arg26,Leu27]-GLP-1-(7-34)-peptide] | > 1 | < 1000
H[Aib]EGTFTSDVSK([AEEA-AEEA-γGlu-C12 diacid])YLEEQAAK([AEEA-AEEA-γGlu-C12 diacid])EFIAWLVQGRG [GLP-1 derivative of Example 39: [Aib8,Lys18,Glu22,Gln34]-GLP-1-(7-37)-peptide] | > 1 | < 1000
H[Aib]EGTFTSDVSK([AEEA-AEEA-γGlu-Decanoyl(10-(4-HOOC-PhO))])YLEEQAAK([AEEA-AEEA-γGlu-Decanoyl(10-(4-HOOC-PhO))])EFIAWLVRG [GLP-1 derivative of Example 140: [Aib8,Lys18,Glu22,Arg34]-GLP-1-(7-35)-peptide] | > 1 | < 1000
H[Aib]EGTFTSDVSK([γGlu-AEEA-AEEA-13‑carboxytridecanoyl])YLEEQAVREFIAK([γGlu-AEEA-AEEA-13‑carboxytridecanoyl])LVG [GLP-1 derivative of Example 36: [Aib8,Lys18,Glu22,Val25,Arg26,Lys31,Gly34]-GLP-1-(7-34)-peptide] | > 1 | < 1000
